Experimental data reported in the supplement of paper PMC12764529.
± gives the half width of the 95% confidence interval.

Legend:
[1] = folding stability dG unfold from trypsin proteolysis; higher = more stable
How it was run: (§1)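 Designed mini-proteins (under 80 residues, no cysteine) in a PA-tagged cDNA display construct were digested with trypsin and chymotrypsin. Each protease was used at 11 concentrations (threefold dilutions) plus a no-protease condition, followed by sequencing. K50 was inferred by Bayesian fitting of sequencing counts, and unfolding free energy was derived against a sequence-predicted unfolded-state K50 and a shared folded-state K50, per protease or combined. Only designs with AlphaFold2 dimer inter-PAE above 15 were kept.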

[2] = folding stability dG unfold from chymotrypsin proteolysis; higher = more stable
How it was run: as §1

[3] = folding stability dG unfold (combined trypsin and chymotrypsin); higher = more stable
How it was run: as §1

Sequence | folding stability dG unfold [1] [kcal/mol] | folding stability dG unfold [2] [kcal/mol] | folding stability dG unfold [3] [kcal/mol]
SKATVLPNGEVVVTAEATFTLPDGTKVTVRVEVRIGPDGTLRPGVTVTVEPVPPPEKPLNIDFDPVTLPKSA [r9_1168_TrMRF] | 0.969 ± 0.13 | 2.91 ± 0.21 | 2.67 ± 0.33
SKEEKPPEVKTFKVKKIEFDPETKKITVEVDGKKLTLELKPGQEVEIFKDGKEIRVVRLAPPPPEKKEKKSA [r9_551_TrROS_Hall] | 1.94 ± 0.36 | 2.95 ± 0.27 | > 6
SKEKYKKPIKFTVKIEEGPVTENGEKYIKIEITYPGGYTATIIITPKKIEIKSNVPNPEKVKELVKKLVKSA [r9_662_TrMRF] | 1.62 ± 0.15 | 2.81 ± 0.14 | 2.5 ± 0.28
SKEVKVKVKVVAPFYNKTKPFPLNIEVEVTVSSSNPELSPEKLTPENLAKIAAEKAREILLKLGIPEEFLSA [r9_516_TrMRF] | 2.63 ± 0.14 | 3.09 ± 0.14 | 2.86 ± 0.34
SKGKKYELIVLLFKVEDPEKYPVEKKVSVPKEFIDFLKKKGFKIIEIKTRVIPSSDGSVYVEHVALVEVDSA [r9_465_TrMRF] | 2.62 ± 0.12 | 4.16 ± 0.13 | 3.82 ± 0.13
SKIKKIKIVKVKPGEEITTPDGRKIKPGDIVIVDEKTNKVYSAEEIKKLLKELEEKLKKLPKKPKPKKKKSA [r9_517_TrROS_Hall] | 0.814 ± 0.07 | 1.78 ± 0.089 | 1.49 ± 0.17
SKKIIKIKIEVIFPKTKKKIEIEIEMTEEEAKKLAEELKKKFKDEKVEVKIVKIEPLPPKKKKKVSKKKKSA [r9_14_TrROS_Hall] | 1.52 ± 0.099 | 1.99 ± 0.1 | 1.83 ± 0.2
SKKITIEIELYRNPETKKLPLKLKAYNENGEPLGELEIEFTESPEEALEKALALAKELAESNDAEITFGLSA [r9_31_TrMRF] | 1.38 ± 0.041 | 1.92 ± 0.036 | 1.76 ± 0.057
SKKIVINLENIPEENREKVLENVLKAIKEAKEKNPEKKVKITILVSPEQKEEVKKLKEELEKAGLEVEEISA [r9_1202_TrROS_Hall] | 3.81 ± 0.31 | 2.31 ± 0.089 | 2.73 ± 0.36
SKKKITIEVEVEKDEETGEYTVRIRITVDGKEIEIEIKAKTPEEAKEKAKKLAEELLKKYPDKVKIEIKPSA [r9_1148_TrROS_Hall] | 2.48 ± 0.11 | 1.98 ± 0.029 | 2.21 ± 0.15
SKKKKIIKIDIKPEDIEKGIKAVREAIKKAKEAEPDTEVIIDFHFESDYPEKVKEIEDLFKKENIPLKIGSA [r9_1202_TrMRF] | 1.39 ± 0.11 | 0.883 ± 0.048 | 1.31 ± 0.18
SKKKKKLTAEEIAKKLEEKLKEEFGIEEIKITKIEFDKETKEITITMEITYKKKKNEKITITKKIKVEDLSA [r9_1002_TrROS_Hall] | 2.08 ± 0.24 | 2.5 ± 0.12 | 2.28 ± 0.63
SKKKVKTETVTLKIVNEKTGEEVELTLEFYEDGTVVKVTFPDGTTKEIKVGKTLEELLSLPPNAKIELIPSA [r9_781_TrROS_Hall] | 0.315 ± 0.12 | 2 ± 0.11 | 1.56 ± 0.11
SKKMTAEELLKKFPNVVFIRLKNGKIIAFNKETKEIYIFNLKTGKVEKIKVTPEELEKLAKENNFEIYPVSA [r9_721_TrROS_Hall] | 2.48 ± 0.078 | 3.32 ± 0.064 | 3.12 ± 0.12
SKKPKVEIEIEIPSVISATPIPNTDEVLVNVPYRVKIKVIGEGPPKEVEVDLPGIMLVSDFIDELKKLLGSA [r9_656_TrMRF] | 1.72 ± 0.072 | 1.74 ± 0.046 | 1.74 ± 0.098
SKKVEVKEIEIKLADGSKVKAKIVKLPDGTYRIFVEFPDGRVAVFEIDVNGKIVKVKPLEVFSLEELKKKSA [r9_1075_TrROS_Hall] | 1.07 ± 0.12 | 0.836 ± 0.47 | 1.17 ± 0.22
SKKVLFIEAKSEEELKAAVKALLDAGYDEIVVSSPEAAKALKELLPDVKVTLVEVKPEKKLSEEEKKKLKSA [r9_639_TrROS_Hall] | 0.505 ± 0.33 | 1.42 ± 0.096 | 1.05 ± 0.26
SKKYKIKKVTIFVYKNGKVEEKEVDLTVDELKALEDAGFEVVKVEEKDGYITVVIKKDGYLVIIKIEIEPSA [r9_5_TrROS_Hall] | 2.73 ± 0.18 | 3.9 ± 0.2 | 3.52 ± 0.37
SKLKPGDIVKLENGEYYRIKKIEISYDKETKEFTIKAEIEPAPPVETETETKTNADGSTETVTKTKVELPSA [r9_914_TrROS_Hall] | 0.701 ± 0.061 | 2.366 ± 0.021 | 1.95 ± 0.042
SKMKIKIEVEKVEDGYLKITITAESKEEAEKAIKELAKKLFGIEEVKVEYDKETKKITVEIIIRPPGEKVSA [r9_1120_TrROS_Hall] | 2 ± 0.17 | 3.61 ± 0.18 | 2.95 ± 0.35
SKPMSPRDQLREIADDIAEKLNEKNGKPYKVRVEFEYPNMPFEIEIPPEAPIEDIMDHFPGWKIKVEIEPSA [r9_513_TrROS] | 0.00988 ± 0.15 | 0.0344 ± 0.32 | 0.0339 ± 0.52
